The text below walks through data of publication doi:10.1101/2025.01.13.632879 (bioRxiv, 2025).

The data set concerns the molecule itself. Briefly: SEC; affinity-purified protein alone; Superdex 200 Increase 10/300 GL, 100 uL of 10 mg/mL, 0.2 mL/min; 200 mM NaCl, 10 mM Tris HCl pH 7.5, 5% glycerol, 1 mM DTT; monomer and dimer peaks.

B1: Escherichia coli LolA P65T (natural protein, UniProt P61316 22-203, looked up)
chain: DAASDLKSRLDKVSSFHASFTQKVTDGSGAAVQEGQGDLWVKRTNLFNWHMTQPDESILVSDGKTLWFYNPFVEQATATWLKDATGNTPFMLIARNQSSDWQQYNIKQNGDDFVLTPKASNGNLKQFTINVGRDGTIHQFSAVEQDDQRSSYQLKSQQNGAVDAAKFTFTPPQGVTVDDQRK
notes: LolA of Escherichia coli; source: E. coli BL21(DE3), purified (Ni-NTA, SEC)
Turning to B1, the stoichiometry N (as a rule, the number of molecules, sites or subunits per partner or assembly) amounted to 2.
